# Assay results from US20050238665A1.
# Target: Crotalus durissus terrificus venom
# Test: ELISA on C.d.t. venom (5 µg/ml coat)
substance,measurement,value
preimmune IgY (chicken egg yolk) (antibody),absorbance at dilution 1:5,< 0 absorbance
same,absorbance at dilution 1:25,0 absorbance
same,absorbance at dilution 1:125,0.003 absorbance
same,absorbance at dilution 1:625,0 absorbance
same,absorbance at dilution 1:3125,0.002 absorbance
same,"absorbance, undiluted",0.003 absorbance
